Source: CN110256561A (DONGDA BIOLOGY TECH SUZHOU CO LTD, dated 2019)

T1: 293T-CTLA-4细胞 (human CTLA-4 on 293T cells) (human, UniProt P16410 36-223)
T1 construct: whole, on cells; also called 人CTLA-4
T1 sequence (looked up): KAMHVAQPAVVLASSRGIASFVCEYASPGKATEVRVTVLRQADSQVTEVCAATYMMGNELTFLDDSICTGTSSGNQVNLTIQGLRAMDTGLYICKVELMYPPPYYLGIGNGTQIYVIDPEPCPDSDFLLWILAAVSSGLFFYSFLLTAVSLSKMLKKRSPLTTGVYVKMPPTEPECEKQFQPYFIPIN

T2: CTLA-4-hFc蛋白 (human CTLA-4 fused to human Fc) (human, UniProt P16410 36-161, limits assumed)
T2 construct: Coated on ELISA plates; also called CTLA-4-Fc; not shown: human Fc (hFc)
T2 sequence (looked up): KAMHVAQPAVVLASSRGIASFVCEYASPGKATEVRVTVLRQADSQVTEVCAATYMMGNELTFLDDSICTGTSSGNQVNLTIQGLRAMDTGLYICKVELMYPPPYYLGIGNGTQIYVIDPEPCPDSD


Assays:
[1] = biological target: T1, 293T-CTLA-4细胞 (human CTLA-4 on 293T …); assay: competition FACS on 293T-CTLA-4 cells, competitor CD80-biotin
[2] = biological target: T2, CTLA-4-hFc蛋白 (human CTLA-4 fused to …); assay: ELISA, CTLA-4-hFc coated; low end of the group's range, tied by Table 5 to 3D2A10
[3] = biological target: T1, 293T-CTLA-4细胞 (human CTLA-4 on 293T …); assay: competition FACS on 293T-CTLA-4 cells, competitor CD80-biotin; the lowest, tied by Table 8 to 3D2A10
[4] = biological target: T1, 293T-CTLA-4细胞 (human CTLA-4 on 293T …); assay: FACS on 293T-CTLA-4 cells
[5] = biological target: T2, CTLA-4-hFc蛋白 (human CTLA-4 fused to …); assay: competition ELISA, CTLA-4-hFc coated, competitor CD80-biotin; the lowest, tied by Table 6 to 3D2A10
[6] = biological target: T2, CTLA-4-hFc蛋白 (human CTLA-4 fused to …); assay: ELISA, CTLA-4-hFc coated
[7] = biological target: T2, CTLA-4-hFc蛋白 (human CTLA-4 fused to …); assay: competition ELISA, CTLA-4-hFc coated, competitor CD80-biotin
[8] = biological target: T1, 293T-CTLA-4细胞 (human CTLA-4 on 293T …); assay: FACS on 293T-CTLA-4 cells; the lowest, tied by Table 7 to 10F8D1

Row | Binder | IC50 [1] [µg/mL] | EC50 [2] [µg/mL] | IC50 [3] [µg/mL] | EC50 [4] [µg/mL] | IC50 [5] [µg/mL] | EC50 [6] [µg/mL] | IC50 [7] [µg/mL] | EC50 [8] [µg/mL]
1 | 3D2A10人源化抗体 (humanized CTLA-4 antibody 3D2A10, IgG1) (antibody, V domains shown, Humanized by CDR grafting with back mutations, built as IgG1, made in 293 cells; also called 人源化CTLA-4抗体3D2A10) VH: QVTLKESGPVLVKPTETLTLTCTVSGFSLTNYAVHWIRQPPGKALEWLGVIWSGGYIDYNAVFISRLTISKDNSKSQAVLTMTNMDPVDTATYYCARSGETGTYYFDYWGQGTLVTVSS VL: EIVMTQSPATLSVSPGERATLSCRASENIYSYLAWYQQKPGQAPRLLVYSATKLANGIPARFSGSGSGTEYTLTISSLQSEDFAVYYCQHFWGTPWTFGGGTKVEIKR | 0.696 | 0.001 | < 0.7 | 0.0788 | < 0.36 | 0.0012 | 0.352 | –
2 | 10F8D1人源化抗体 (humanized CTLA-4 antibody 10F8D1, IgG1) (antibody, V domains shown, Humanized by CDR grafting with back mutations, built as IgG1, made in 293 cells; also called 人源化CTLA-4抗体10F8D1) VH: QVQLVQSGAEVKKPGASVKVSCKASGYTFTNYWMHWVRQAPGQGLEWIGYINPTTTYTNYNQKFKDRATLTADKSISTAYMELSRLRSDDTAVYYCATTAQATGYGMDFWGQGTLVTVSS VL: DIVMTQSPDSLAVSLGERATINCKSTQSLLNSGNQRNYLTWYQQKPGQPPKLLIYWASTRESGVPDRFSGSGSGTDFTLTISSLQAEDVAVYYCQNDYSFPLTFGQGTKLEIKR | 1.66 | – | – | 0.0231 | – | 0.00149 | 0.388 | < 0.024
